Data as given in US20210317456.
pKd: −log10 of the molar value.

Legend:
[1] = system: Immunoglobulin G (total IgG) (Homo sapiens); test: filter
[2] = system: IgG3-Kappa (Homo sapiens), P01860-1+P01834; test: pulldown; conditions: Protein L beads, SB17, 37 C
[3] = system: IgG1-Kappa (Homo sapiens), P01857-1+P01834; test: pulldown; conditions: Protein L beads, SB17, 37 C
[4] = system: Immunoglobulin G (total IgG); test: pulldown
[5] = system: IgG4-Kappa (Homo sapiens), P01861-1+P01834; test: pulldown; conditions: Protein L beads, SB17, 37 C
IgA (Homo sapiens) = test: filter; conditions: Zorbax, SB18, 37 C
IgM (Homo sapiens) = test: filter; conditions: Zorbax, SB18, 37 C
[6] = system: IgG1-Fc (Homo sapiens), P01857-1; test: filter; conditions: n (P) = NapdU; Zorbax, SB18, 37 C
[7] = system: IgG3-Fc (Homo sapiens), P01860-1; test: filter; conditions: n (P) = NapdU; Zorbax, SB18, 37 C
[8] = system: β-FGFR fusion (Fc fusion protein) (Homo sapiens); test: filter; conditions: Zorbax, SB18, 37 C
[9] = system: Total IgG (rabbit) (Oryctolagus cuniculus); test: filter; conditions: n (P) = 2NapdU; Zorbax, SB18, 37 C
IgD (Homo sapiens) = test: filter; conditions: n (P) = 2NapdU; Zorbax, SB18, 37 C
[10] = system: Total IgG (monkey) (monkey); test: filter; conditions: n (P) = 2NapdU; Zorbax, SB18, 37 C
[11] = n (P) = NapdU, SB18, 5 mM MgCl2, 37 C
[12] = n (P) = 2NapdU, SB18, 5 mM MgCl2, 37 C
[13] = n (P) = NapdU, considered no binding
[14] = n (P) = 2NapdU, considered no binding

Sequence of IgG4-Kappa (Homo sapiens), P01861-1+P01834 (P01861 other isoform, or with tags, fused parts or gaps, chain 1 of 2, other chains not shown): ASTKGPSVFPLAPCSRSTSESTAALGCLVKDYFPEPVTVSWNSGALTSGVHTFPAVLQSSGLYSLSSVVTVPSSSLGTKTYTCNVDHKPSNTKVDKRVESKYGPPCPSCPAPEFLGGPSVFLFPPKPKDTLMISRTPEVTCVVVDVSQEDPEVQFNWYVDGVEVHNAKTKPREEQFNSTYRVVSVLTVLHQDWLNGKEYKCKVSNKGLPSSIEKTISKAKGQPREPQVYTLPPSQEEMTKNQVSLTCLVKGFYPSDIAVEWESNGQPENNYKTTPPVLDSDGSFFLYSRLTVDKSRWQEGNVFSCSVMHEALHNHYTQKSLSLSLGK
Sequence of IgG3-Kappa (Homo sapiens), P01860-1+P01834 (P01860 other isoform, or with tags, fused parts or gaps, chain 1 of 2, other chains not shown): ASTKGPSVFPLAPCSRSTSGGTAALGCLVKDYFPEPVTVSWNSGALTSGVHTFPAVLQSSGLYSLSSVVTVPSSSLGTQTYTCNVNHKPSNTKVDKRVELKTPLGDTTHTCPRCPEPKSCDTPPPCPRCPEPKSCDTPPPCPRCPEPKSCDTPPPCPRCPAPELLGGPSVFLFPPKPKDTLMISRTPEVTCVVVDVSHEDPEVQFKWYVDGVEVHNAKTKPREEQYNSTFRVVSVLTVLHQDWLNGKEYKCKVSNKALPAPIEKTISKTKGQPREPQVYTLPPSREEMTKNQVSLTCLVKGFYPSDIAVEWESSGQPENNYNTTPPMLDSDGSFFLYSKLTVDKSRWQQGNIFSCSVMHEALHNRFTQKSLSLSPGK
Sequence of IgG3-Fc (Homo sapiens), P01860-1 (P01860 other isoform, or with tags, fused parts or gaps): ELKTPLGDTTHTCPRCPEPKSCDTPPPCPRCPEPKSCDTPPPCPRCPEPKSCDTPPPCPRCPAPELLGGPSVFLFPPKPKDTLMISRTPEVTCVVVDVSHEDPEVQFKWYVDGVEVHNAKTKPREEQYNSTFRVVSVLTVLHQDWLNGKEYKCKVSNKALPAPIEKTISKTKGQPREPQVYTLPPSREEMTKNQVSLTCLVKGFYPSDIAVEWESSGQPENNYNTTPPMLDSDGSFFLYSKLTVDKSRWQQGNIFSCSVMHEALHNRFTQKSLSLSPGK

With “ACGGTACGATTTTCAGTTGGATCCAGTAC [5406-56_46]” as the sequence, how does the pKd [1, 11] read?
The pKd was 8.09.

“ACGGTACGATTTTCAGTTGGATCCAGTACC [5406-56_40]” was tested. Which pKd [1, 11] did it give?
Its pKd is 8.36.

How did the pKd [1, 11] turn out when “ACGGTACGATTTTCAGTTGGATCCAGTACCT [5406-56_34]” was run?
Its pKd is 8.47.

How did the pKd [1, 11] turn out when “ACGGTACGATTTTCAGTTGGATCCAGTACCTG [5406-56_28]” was run?
The pKd was 8.44.

With “ACGGTACGATTTTCAGTTGGATCCAGTACCTGG [5406-56_22]” as the sequence, how does the pKd ([1]; n (P) = NapdU, Zorbax bead partitioning, SB18, 5 mM MgCl2, 37 C, printed sequence identical to _21 to _25, length unclear) read?
Its pKd is 8.31.

How did the pKd [1, 12] turn out when “ACTCCACATCCAAGACTGCGGTTACCTTGTAGGCGATTATGGGCAG [5334-8_5]” was run?
Its pKd is 8.23.

How did the pKd [1, 13] turn out when “ACTCCCTGAATGCTCTTGTCTTAAGTCCCCAACA [14125-144_11]” was run?
The pKd was less than 6.00.

With “ACTGCGGTTACCTTGTAGGCGATTATGGGCAG [5334-8_22]” as the sequence, how does the pKd [1, 12] read?
The pKd was 8.24.

How did the pKd [1, 14] turn out when AGACTGCGGTTACCTTGTAGGCGATT [5334-8_33] was run?
The pKd was less than 6.00.

“AGACTGCGGTTACCTTGTAGGCGATTAT [5334-8_32]” was tested. Which pKd [1, 14] did it give?
Its pKd is less than 6.00.

With “AGACTGCGGTTACCTTGTAGGCGATTATGGGCA [5334-8_28]” as the sequence, how does the pKd [1, 12] read?
Its pKd is 8.07.

How did the pKd [1, 13] turn out when “ATGGCGAACTCCCTGAATGCTCTTGTC [14125-144_37]” was run?
The pKd was less than 6.00.

“ATGGCGAACTCCCTGAATGCTCTTGTCT [14125-144_33]” was tested. Which pKd [1, 13] did it give?
Its pKd is less than 6.00.

With “ATGGCGAACTCCCTGAATGCTCTTGTCTT [14125-144_29]” as the sequence, how does the pKd [1, 11] read?
Its pKd is 7.94.

“ATGGCGAACTCCCTGAATGCTCTTGTCTTA [14125-144_25]” was tested. Which pKd [1, 11] did it give?
The pKd was 8.12.

How did the pKd [1, 11] turn out when “ATGGCGAACTCCCTGAATGCTCTTGTCTTAA [14125-144_21]” was run?
The pKd was 8.26.

With “CAAGACTGCGGTTACCTTGTAGGCGATTATGGGCAG [5334-8_10]” as the sequence, how does the pKd [1, 12] read?
Its pKd is 8.27.

How did the pKd [1, 12] turn out when “CACATCCAAGACTGCGGTTACCTTGTAGGCGATTATGGGCAG [5334-8_7]” was run?
Its pKd is 8.23.

How did the pKd [1, 12] turn out when “CATCCAAGACTGCGGTTACCTTGTAGGCGATTATGGGCAG [5334-8_8]” was run?
Its pKd is 8.01.

“CCTCCATACGGTACGATTTTCAGTTGGATCCAGTACCTGGCTGGAGAGAA [5406-56_3]” was tested. Which pKd ([2]; n (P) = NapdU) did it give?
The pKd was 7.10.

And the pKd ([3]; n (P) = NapdU)?
The pKd was 8.70.

And the pKd ([4]; P = NapdU at all n positions, SB18, 5 mM MgCl2, 37C, bead partitioning, 4.54 nM in Table 2)?
The pKd was 8.50.

What about the pKd ([5]; n (P) = NapdU) of the same sequence?
The pKd was 7.70.

And the pKd (IgA (Homo sapiens); n (P) = NapdU)?
The pKd was 6.70.

What about the pKd (IgM (Homo sapiens); n (P) = NapdU) of the same sequence?
The pKd was 7.00.

What about the pKd [6] of the same sequence?
The pKd was 8.70.

What about the pKd [7] of the same sequence?
Its pKd is 6.40.

What about the pKd ([8]; n (P) = NapdU) of the same sequence?
Its pKd is 8.52.

With “CGGCACTCCACATCCAAGACTGCGGTTACCTTGTAG [5334-8_18]” as the sequence, how does the pKd [1, 14] read?
Its pKd is less than 6.00.

How did the pKd [1, 14] turn out when “CGGCACTCCACATCCAAGACTGCGGTTACCTTGTAGGC [5334-8_17]” was run?
The pKd was less than 6.00.

With “CGGCACTCCACATCCAAGACTGCGGTTACCTTGTAGGCGA [5334-8_16]” as the sequence, how does the pKd [1, 14] read?
The pKd was less than 6.00.

With “CGGCACTCCACATCCAAGACTGCGGTTACCTTGTAGGCGATTAT [5334-8_14]” as the sequence, how does the pKd [1, 14] read?
Its pKd is less than 6.00.

With “CGGCACTCCACATCCAAGACTGCGGTTACCTTGTAGGCGATTATGGGCAG [5334-8_3]” as the sequence, how does the pKd ([2]; n (P) = 2NapdU) read?
The pKd was 8.15.

And the pKd ([3]; n (P) = 2NapdU)?
Its pKd is 7.40.

And the pKd ([4]; P = 2NapdU at all n positions, SB18, 37C, 12.2 nM in Table 4)?
Its pKd is 8.12.

What about the pKd ([5]; n (P) = 2NapdU) of the same sequence?
The pKd was 8.00.

And the pKd [9]?
The pKd was 7.70.

What about the pKd (IgA (Homo sapiens); n (P) = 2NapdU) of the same sequence?
The pKd was 6.70.

And the pKd (IgM (Homo sapiens); n (P) = 2NapdU)?
Its pKd is 7.00.

And the pKd (IgD (Homo sapiens))?
The pKd was 6.22.

And the pKd [10]?
Its pKd is 7.70.

And the pKd ([8]; n (P) = 2NapdU)?
Its pKd is 8.05.

“CGGTACGATTTTCAGTTGGATCCAGTAC [5406-56_47]” was tested. Which pKd [1, 11] did it give?
The pKd was 8.24.

“CGGTACGATTTTCAGTTGGATCCAGTACCT [5406-56_35]” was tested. Which pKd [1, 11] did it give?
Its pKd is 8.47.

With “CGGTACGATTTTCAGTTGGATCCAGTACCTG [5406-56_29]” as the sequence, how does the pKd [1, 11] read?
Its pKd is 8.46.

How did the pKd ([1]; n (P) = NapdU, SB18, 5 mM MgCl2, 37 C, sequence identical to _21 to _25) turn out when “CGGTACGATTTTCAGTTGGATCCAGTACCTGG [5406-56_23]” was run?
The pKd was 8.26.

“CTGCACGATGGCGAACTCCCTGAATGCTCTTGTCTTAAGTCCCCAACA [14125-144_4]” was tested. Which pKd [1, 11] did it give?
The pKd was 7.98.

How did the pKd [1, 12] turn out when “GACTGCGGTTACCTTGTAGGCGATTATGGGCAG [5334-8_21]” was run?
The pKd was 8.17.

With “GATGGCGAACTCCCTGAATGCTCTTGTC [14125-144_36]” as the sequence, how does the pKd [1, 13] read?
The pKd was less than 6.00.

How did the pKd [1, 13] turn out when “GATGGCGAACTCCCTGAATGCTCTTGTCT [14125-144_32]” was run?
Its pKd is less than 6.00.

“GATGGCGAACTCCCTGAATGCTCTTGTCTT [14125-144_28]” was tested. Which pKd [1, 11] did it give?
The pKd was 7.76.

“GATGGCGAACTCCCTGAATGCTCTTGTCTTA [14125-144_24]” was tested. Which pKd [1, 11] did it give?
Its pKd is 8.00.

How did the pKd [1, 11] turn out when “GATGGCGAACTCCCTGAATGCTCTTGTCTTAA [14125-144_20]” was run?
Its pKd is 8.18.
